Measured values as given in the supplement of paper PMC12764529.
± gives the half width of the 95% confidence interval.

Key:
[1] = folding stability dG unfold from chymotrypsin proteolysis; higher = more stable
Procedure: (§1)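 Folding stability of de novo designed mini-proteins (<80 aa, no Cys; designed by TrROS, TrMRF, ProteinMPNN and the joint model) was measured by cDNA display proteolysis with trypsin and chymotrypsin. Each protease was used at 11 concentrations in a threefold dilution series plus a no-protease condition. K50 was inferred by Bayesian fitting of sequencing counts, and dG unfold was derived against a sequence-predicted unfolded-state K50 (Tsuboyama et al. method). Sequences shown include variable-length N-terminal GS-type padding (SAGGSAGG...) inside a display construct carrying a PA tag. Rows were kept only if the AF2 dimer inter-PAE was >15, to exclude likely homo-oligomers.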

[2] = folding stability dG unfold (combined trypsin and chymotrypsin); higher = more stable
Procedure: as §1

Sequence | folding stability dG unfold [1] [kcal/mol] | folding stability dG unfold [2] [kcal/mol]
SAGGMILIERDGRERVLEKAREAVEAEAARARAGDVEDAVLLVDLRVVDPVTGEWEELPVLARVPPASAGGS [r8_163_TrMRF] | 0.461 ± 0.076 | -0.0473 ± 0.11
SAGGMKIKIEITEIKKEGDTVYIKVKITITLPNGKVIKIEMTLRYNKETGKWEIVKIEKIEIFPLPESAGGS [r16_729_TrROS_Hall] | 5.3 ± 0.31 | 5.46 ± 0.49
SAGGMKITVTPSTDPNTPLTRETVTVPPTADPEAVAEKLRRAYPDGSTTTVTPRPDGTIVVTTTLPASAGGS [r8_255_JUSTAS] | 0.181 ± 0.083 | -0.291 ± 0.069
SAGGMKTSPIGTFPLPDPSNGALADTVTIENPKEIIKKSNKEIVKVTVTTTAPDGTPTTTDEIIIIKNSAGG [r13_735_JUSTAS] | 0.548 ± 0.066 | 0.148 ± 0.3
SAGGMNSMRLTVEFPSPEQREEKLRQIVHKHGFTIKPKEVEPNPNGRMTHTIEINMPPKVRDAFKDLSAGGS [r8_357_TrROS] | -0.152 ± 0.19 | -0.659 ± 0.14
SAGGMPKKITKLELLSETYDPLTNTYTVTVRATFDDGTEKVIELTLPRSEYEKLSKEEIKKRAIDLLLSAGG [r13_512_JUSTAS] | 5.29 ± 0.12 | 5.52 ± 0.34
SAGGMSVEVDWGETTRRLTFYDESGNPVADAEEPVLDPLTGLSTSRGVSLEELARRAGVPVELPERRSAGGS [r16_778_JUSTAS] | 0.764 ± 0.025 | 0.337 ± 0.058
SAGGMTIEVPDGFRIDGFRPFPDGRSAVLVRYKGTGKVEIFPFGDRVPEASADEPVEVEVVPIPPELLSAGG [r13_173_TrMRF] | 0.155 ± 0.21 | -0.353 ± 0.14
SAGGMTIPLEFEFESEEEAKEKAEEIAEELAKSFPEYEVEVKIEIKPVKDPNSDTTKWRVKMEITVGPSAGG [r13_545_JUSTAS] | 4.38 ± 0.2 | 4.56 ± 0.31
SAGGNIEIEIPIPKEDLKDNDFEEAKEYVREYVRMIAREQGLPPGFPIKDIDVQPHPNYYMVKIEIPSAGGS [r16_368_TrROS] | 0.868 ± 0.26 | 0.401 ± 0.16
SAGGNIKITDIEMEPMNMPRKNEDGKEKPRPMWQFKVRIRDDGKPIAEVPFTSMDDMRNAVKKLLKKSAGGS [r8_21_TrROS] | -0.0964 ± 0.26 | -0.182 ± 0.39
SAGGNIPPGETWKIKFPGKPIEIQMQQINGKPMYRLRDKNNKPHGTMTPDEADEFLDKLPPNWEIERYSAGG [r13_657_TrROS] | -0.253 ± 0.37 | -0.353 ± 0.22
SAGGPKVVKGKKVEKVELEVGKLPDGVELVKVKVRSKEVDKEFTFTFEPGQDLGEFGKATGFDIGVESAGGS [r16_676_TrMRF] | 0.552 ± 0.16 | 0.14 ± 0.17
SAGGSAGGEETLRVTEITDVEKPDNGPRIKFPIEHDGKKKPIDINVPPDDLKPGDTIPLEEILKSAGGSAGG [r6_585_TrROS] | 0.847 ± 0.072 | 0.222 ± 0.15
SAGGSAGGGPDLKVTDIEFDPETGEIRIRTEAGGKLVAEVTIKGAPPVPVYPDKDGNWYPAGAKSAGGSAGG [r6_832_TrMRF] | 0.986 ± 0.062 | 0.517 ± 0.12
SAGGSAGGGPYKTSYAIVDGSVVASTEGDPETGVVTSTFTFDGSDVEYTTPATPGEAVTRTVSLSAGGSAGG [r6_972_JUSTAS] | 0.797 ± 0.059 | 0.346 ± 0.047
SAGGSAGGITLVVEGMPAEQMEEMKQKIREFAEDYNVEVNIDQERNPDGRMRATVEIEPPPGDPSAGGSAGG [r6_907_TrROS] | -0.472 ± 0.15 | -0.767 ± 0.28
SAGGSAGGIWIPADEFKGQPIKVRIKHNGNERPIEEVKIKSHPDGFVFIEFPPELPENMKIEIESAGGSAGG [r6_630_TrROS] | 0.453 ± 0.12 | -0.0114 ± 0.15
SAGGSAGGMIRTYELPETGEVRVLIRTPNPEEAEALAAEVRAELAAAGLDVPVEISPGPASALDSAGGSAGG [r6_641_JUSTAS] | 0.703 ± 0.2 | 0.283 ± 0.18
SAGGSAGGMIVELPTPDDETLTLTTRPTPDGSVPVTATRLTPDSTEVTTVSTADPAVVELVAAASAGGSAGG [r6_607_JUSTAS] | -0.448 ± 0.26 | < -1
